Tests used:
[1] = molecular target: T1, His-tagged cynomolgus monkey TIGIT (Acro Biosystems #TIT-05223) (cynomolgus monkey, UniProt A0A7N9I9V4 89-209); assay: SPR (Carterra LSA), scFv-Fc captured, His-TIGIT analyte; repeat
T1 construct: Bought protein; also called cyno TIGIT; cynomolgus TIGIT; not shown: His tag
Procedure: (§1) Binding affinities of anti-TIGIT antibodies to human, cyno, and murine TIGIT were measured by Surface Plasmon Resonance (SPR) on a Carterra LSA instrument. Goat anti-human Fc antibody was amine coupled to a HC30M chip. ScFv-Fc supernatants were diluted 30-fold with HBSTE and were captured by the anti-human Fc coupled HC30M chip. A 1:2 dilution series of his-tagged human TIGIT, starting at 400 nM, was injected onto the chip for binding. A dilution series was also carried out for cyno TIGIT and murine TIGIT. Data were analyzed using the Carterra™ Kinetics software.

[2] = molecular target: T2, human TIGIT on Jurkat cells (TIGIT/NFAT reporter Jurkat cells, BPS Bioscience #60538); Promega TIGIT Effector … (human, UniProt Q495A1 22-244); assay: flow cytometry, TIGIT/NFAT Jurkat cells, 10 ug/ml
T2 construct: whole, on cells; Same protein on two bought Jurkat lines (flow cytometry: BPS; bioassay: Promega); also called hu TIGIT cells; cells expressing human TIGIT
T2 sequence (looked up): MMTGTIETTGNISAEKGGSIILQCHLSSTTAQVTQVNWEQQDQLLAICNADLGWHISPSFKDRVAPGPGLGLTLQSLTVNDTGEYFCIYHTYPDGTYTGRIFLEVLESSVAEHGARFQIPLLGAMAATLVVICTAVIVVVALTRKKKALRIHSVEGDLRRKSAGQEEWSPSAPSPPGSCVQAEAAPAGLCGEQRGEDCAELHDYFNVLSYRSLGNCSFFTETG

[3] = molecular target: T3, his-tagged human TIGIT (Acro Biosystems #TIT-H52H3) (human, UniProt Q495A1 22-141); assay: SPR (Carterra LSA), scFv-Fc captured, His-TIGIT analyte
T3 construct: Bought protein; also called His-tagged-TIGIT (human); not shown: his tag
T3 sequence (looked up): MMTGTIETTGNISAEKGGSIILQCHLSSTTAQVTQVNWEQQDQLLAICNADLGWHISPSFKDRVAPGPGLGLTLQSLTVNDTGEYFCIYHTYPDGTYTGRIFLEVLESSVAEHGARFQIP
Procedure: as §1

[4] = molecular target: T1, His-tagged cynomolgus monkey TIGIT …; assay: as above
Procedure: as §1

[5] = molecular target: T3, his-tagged human TIGIT (Acro Biosystems …); assay: ELISA, coated His-TIGIT, 1 ug/ml
[6] = molecular target: T1, His-tagged cynomolgus monkey TIGIT …; assay: ELISA, coated His-TIGIT, 1 ug/ml
[7] = molecular target: T4, his-tagged murine TIGIT (Acro Biosystems #TIT-M52E6) (murine, UniProt P86176 29-148, limits assumed); assay: ELISA, coated His-TIGIT, 1 ug/ml
T4 construct: Bought protein; also called mouse his-tagged TIGIT; not shown: his tag
T4 sequence (looked up): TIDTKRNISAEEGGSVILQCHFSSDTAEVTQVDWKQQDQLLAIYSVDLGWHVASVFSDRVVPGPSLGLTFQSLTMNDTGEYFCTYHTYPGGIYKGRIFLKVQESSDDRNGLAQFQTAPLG

[8] = molecular target: T2, human TIGIT on Jurkat cells (TIGIT/NFAT …); assay: cell-based or functional assay
[9] = molecular target: T4, his-tagged murine TIGIT (Acro …); assay: SPR (Carterra LSA), scFv-Fc captured, His-TIGIT analyte
Procedure: as §1

T1 sequence (A0A7N9I9V4 entry or part of it): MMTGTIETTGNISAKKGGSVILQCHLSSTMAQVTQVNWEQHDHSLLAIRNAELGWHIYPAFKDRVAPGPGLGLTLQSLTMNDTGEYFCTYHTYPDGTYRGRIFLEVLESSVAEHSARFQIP

B1: 43586p1.1.H8 (scFv, V domains shown)
VH: EVQLLESGGGLVQPGGSLRLSCAASGFTFIDFWMSWVRQAPGKGLEWVSAISWIGDTYYYADSVKGRFTVSRDNSKNTVYLQMNSLRAEDTAVYYCAKHWTVYQYGMDVWGQGTTVTVSS
VL: QSVLTQPPSASGTPGQRVIISCSGSTSDIETKYVSWYQQLPGTAPKLLIYGNHQRPSGVPDRFSGSKSGTSASLAISGLQSEDEADYYCTAWDNTLKSWVFGGGTKLTVL
A Kd [1] of 16 nM, an MFI [2] of 9170 MFI and a Kd [3] of 0.292 nM were found for B1 in this work. The Kd [4] was 31.6 nM, the “Elisa OD450” value [5] was 1.93 OD450 and the “Elisa OD450” value [6] was 1.25 OD450. For the same binder, the “Elisa OD450” value [7] was 0.048 OD450 and the “max. signal (% of 22G2)” value [8] was 124 % of 22G2.

B2: 43586p1.2.E6 (scFv, V domains shown)
VH: EVQLLESGGGLVQPGGSLRLSCAASGFTVSDHYMSWVRQAPGKGLEWVSTTSSTSWKNYTYYADSVKGRFSISRDNSENTLYLQMNGLRAEDTAVYYCAKGSYGMDVWGQGTTVTVSS
VL: QSVLTQPPSASGTPGQRVTISCSGSNFNIGTKYLYWYQQLPGTAPKLLIYLDSQRPSGVPDRFSTSKSGTSASLAISGLQSEDEADYYCALWDDHLHGWVFGGGTKLTVL
An MFI [2] of 10500 MFI, a Kd [3] of 1.56 nM and a Kd [4] of 564 nM were found for B2 in this work. For the same binder, the Kd [9] was 3.07 nM, the “Elisa OD450” value [5] was 1.82 OD450 and the “Elisa OD450” value [6] was 0.776 OD450. For the same binder, the “Elisa OD450” value [7] was 2.01 OD450 and the “max. signal (% of 22G2)” value [8] was 97 % of 22G2.

B3: 43586p2.D01 (scFv, V domains shown)
VH: EVQLLESGGGLVQPGGSLRLSCAASGFTVSSNWMSWVRQAPGKGLEWVSTTSSSSWNNYTYYADSVKGRFTISRDNSKNTLYLQMNSLRAEDTAVYYCAKGSYGMDVWGQGTTVTVSS
VL: QSVLTQPPSASGTPGQRVTISCSGSNSNIGAKYLYWYQQLPGTAPKLLIYLNDQRPSGVPDRFSGSKSGTSASLAISGLQSEDEADYYCAFWDDHLKGWVFGGGTKLTVL
An MFI [2] of 9990 MFI, a Kd [3] of 1.04 nM and a Kd [4] of 29.1 nM were found for B3 in this work. For the same binder, the Kd [9] was 0.496 nM, the “Elisa OD450” value [5] was 1.95 OD450 and the “Elisa OD450” value [6] was 1.61 OD450. The “Elisa OD450” value [7] was 1.66 OD450 and the “max. signal (% of 22G2)” value [8] was 103 % of 22G2.

B4: 43586p2.D05 (scFv, V domains shown)
VH: EVQLLESGGGLVQPGGSLRLSCAASGFTFDDYVMSWVRQAPGKGLEWVSLINWNGDKTYYADSVKGRFTISRDNSKNTLYLQMNSLRAEDTAVYYCARHWIVFQYGLDIWGQGTTVTVSS
VL: QSVLTQPLSASGTPGQRVTISCSGVSSNIEIKYVSWYQQLPGTAPKLLIYNSHQRPSGVPDRFSGSKSGTSASLAISGLQSEDEADYYCTSWDDRLKSWVFGGGTKLTVL
An MFI [2] of 9960 MFI, a Kd [3] of 0.214 nM and a Kd [4] of 1.55 nM were found for B4 in this work. The Kd [9] was 5.46 nM, the “Elisa OD450” value [5] was 1.92 OD450 and the “Elisa OD450” value [6] was 1.73 OD450. The “Elisa OD450” value [7] was 1.67 OD450 and the “max. signal (% of 22G2)” value [8] was 118 % of 22G2.

B5: 43586p2.E08 (scFv, V domains shown)
VH: EVQLLESGGDLVQPGGSLRLSCAASGFTFDDYVMSWVRQAPGKGLEWVSLINWNGDKTYYADSVKDRFTISRDNSKNTLYLQMNSLRAEDTAVYYCARHWIVFQYGLDVWGQGTTVTVSS
VL: QSVLTQPLSASGTPGQRVTISCSGVSSNIEIKYVSWYQQLPGTAPKLLIYNSHQRPSGVPDRFSGSKSGTSASLAISGLQSEDEADYYCTSWDDRLKSWVFGGGTKLTVL
An MFI [2] of 11300 MFI, a Kd [3] of 0.252 nM and a Kd [4] of 1.83 nM were found for B5 in this work. For the same binder, the Kd [9] was 5.79 nM, the “Elisa OD450” value [5] was 1.46 OD450 and the “Elisa OD450” value [6] was 1.87 OD450. The “Elisa OD450” value [7] was 2.03 OD450 and the “max. signal (% of 22G2)” value [8] was 117 % of 22G2.

B6: 43586p2.F02 (scFv, V domains shown)
VH: EVQLLESGGGLVQPGGSLRLSCAASGFTFDDYVMSWVRQAPGKGLEWVSLINWNGDKTYYADSVKGRFTISRDNSKNTLYLQMNSLRAEDTAVYYCARHWIVLQYGLDVWGQGTTVTVSS
VL: QSVLTQPLSASGTPGQRVTISCSGVSSNIEIKYVSWYQQLPGTAPKLLIYNSHQRPSGVPDRFSGSKSGTSASLAISGLQSEDEADYYCTSWDDRLKSWVFGGGTKLTVL
An MFI [2] of 8960 MFI, a Kd [3] of 1.81 nM and a Kd [4] of 14.4 nM were found for B6 in this work. For the same binder, the Kd [9] was 96 nM, the “Elisa OD450” value [5] was 1.85 OD450 and the “Elisa OD450” value [6] was 1.77 OD450. The “Elisa OD450” value [7] was 1.9 OD450 and the “max. signal (% of 22G2)” value [8] was 92 % of 22G2.

B7: 43586p2.F11 (scFv, V domains shown)
VH: EVQLLELGGSLVQPGGSLRLSCAASGFTFDDYVMSWVRQAPGKGLEWVSLINWNGDKTYYADSVKGRFTISRDNSKNTLYLQMNSLRAEDTAVYYCARHWIVFQYGLDVWGQGTTVTVSS
VL: QSVLTQPLSASGTPGQKVTISCSGVSSNIEIKYVSWYQQLPGTAPKLLIYNSHQRPSGVPDRFSGSKSGTSASLAISGLQSEDEADYYCTSWDDRLKSWVFGGGTKLTVL
An MFI [2] of 9200 MFI, a Kd [3] of 0.307 nM and a Kd [4] of 2.09 nM were found for B7 in this work. For the same binder, the Kd [9] was 6.23 nM, the “Elisa OD450” value [5] was 1.98 OD450 and the “Elisa OD450” value [6] was 1.92 OD450. The “Elisa OD450” value [7] was 1.93 OD450 and the “max. signal (% of 22G2)” value [8] was 104 % of 22G2.

B8: 43586p2.G01 (scFv, V domains shown)
VH: EVQLLESGGGLVQPGGSLRLSCAASGFTVSSNWMSWVRQAPGKGLEWVSTTSSSSWNNYTYYADSVKGRFTISRDNSKNTLYLQMNSLRAEDTAVYYCAKGSYGMDVWGQGTTVTVSS
VL: QSVLTQPPSASGTPGQRVTISCSGSNSNIGAKYLYWYQQLPGTAPKLLIYLNDRRPSGVPDRFSGSKSGTSASLAISGLQSEDEADYYCAFWDDHLKGWVFGGGTKLTVL
An MFI [2] of 9720 MFI, a Kd [3] of 2.69 nM and a Kd [4] of 339 nM were found for B8 in this work. For the same binder, the Kd [9] was 1.65 nM, the “Elisa OD450” value [5] was 2.03 OD450 and the “Elisa OD450” value [6] was 1.15 OD450. For the same binder, the “Elisa OD450” value [7] was 1.95 OD450 and the “max. signal (% of 22G2)” value [8] was 110 % of 22G2.

B9: 43586p2.H02 (scFv, V domains shown)
VH: EVQLLESGGGLVQPGGSLRLSCATSGFTVSDHYVSWVRQAPGKGLEWVSTSSSTNWNDGRTYYADSVKGRFTISRDNSENTLYLQMNSLRAEDTAVYYCAKGSYGMDVWGQGTTVTVSS
VL: QSVLTQPPSASGTPGQRVTISCSASNSYIGTKYFYWYQQLPGTAPKLLIYLDSQRPSGVPDRFSGSKSGTSVSLAISGLQSEDEADYYCAFWDDHLHGWVFGGGTKLTVL
An MFI [2] of 9130 MFI, a Kd [3] of 2.53 nM and a Kd [4] of 334 nM were found for B9 in this work. The Kd [9] was 3.94 nM, the “Elisa OD450” value [5] was 2 OD450 and the “Elisa OD450” value [6] was 1.09 OD450. For the same binder, the “Elisa OD450” value [7] was 1.93 OD450 and the “max. signal (% of 22G2)” value [8] was 80 % of 22G2.

B10: 43645p1.G5 (scFv, V domains shown)
VH: EVQLLESGGGLVQPGGSLRLSCAASGFTFSSYYMSWVRQAPGKGLEWVSAISIFSGDSTYYADSVKGRFTISRDNSKNTLYLQMNSLRAEDTAVYYCAKSHTVLQYGMDVWGQGTTVTVSS
VL: QSVLTQPPSASGTPGQRVTISCSGVTSNIRNYYVSWYQQLPGTAPKLLIYGNDQRPSGVPDRFSGSKSGTSASLAISGLQSEDEADYYCGTWDNTLNAWVFGGGTKLTVL
A Kd [1] of 0.368 nM, an MFI [2] of 12400 MFI and a Kd [3] of 0.0507 nM were found for B10 in this work. For the same binder, the “Elisa OD450” value [5] was 1.94 OD450, the “Elisa OD450” value [6] was 1.73 OD450 and the “Elisa OD450” value [7] was 1.01 OD450. For the same binder, the “max. signal (% of 22G2)” value [8] was 99 % of 22G2.

B11: 43586p1.2.F6 (scFv, V domains shown)
VH: EVQLLESGEGLVQPGGSLRLSCAASGFTFTSYLMSWVRQAPGKGLEWVSTITWDGDRTYYADSVKGRFTISRDNSKNTLYLQMNSLRVGDTAVYYCAKHWTVFQYGMDVWGQGTTVTVSS
VL: QSVLTQPASASGTPGQRVTISCSGTISNIETKYVSWYQQLPGTAPKLLIYGNHQRPSGVPDRFSGSKSGTSASLAISGLQSEDEADYYCASWENDLKSWVFGGGTKLTVL
notes: Tested as scFv-Fc supernatant; also called 43586p1.2.F06
A Kd [1] of 4.6 nM, a Kd [3] of 0.223 nM and a Kd [4] of 38.1 nM were found for B11 in this work.
